Test results taken from publication PMC12744750 (Plant Communications, 2025).

Assays:
[1] = Solubility during Cu(I) titration; format: physicochemical; conditions: strictly anaerobic conditions
Experimental: All Cu(I) titration experiments were carried out in an anaerobic chamber (Belle Technology) using metal-free CHELEX-treated, degassed buffers. For titration experiments with Cu(I), aqueous CuSO4 stock was quantified in advance by ICP–MS and diluted to working concentrations. The reductant NH2OH was included at a final concentration of 1 mM to maintain Cu(I) in its reduced state. Proteins were diluted in buffer to the final concentration specified in each titration in air-tight quartz cuvettes (Helma), and after addition of probe to the concentration specified, titrated with CuSO4. After each addition, solutions were thoroughly mixed and absorbance spectra recorded using a Lambda 35 UV/Vis spectrophotometer (PerkinElmer). Titration isotherm data were fitted using simulated affinity curves with DynaFit ([Kuzmič, 2009]).

ETR1:HA = assay: Co-IP competition: synthetic PLS vs PLS:GFP binding to ETR1:HA in N. benthamiana leaves; parameters: species or system Arabidopsis; conditions: 25 nM synthetic PLS(FL), 0.5 μM CuSO4, 50 μM MG-132, 30 min before tissue harvest
Source text: To investigate the interaction between the PLS peptide and the ethylene receptor ETR1, two DNA constructs were created by Gateway cloning. The […] PLS gene (without the stop codon) was inserted into the pEarlyGate103 (pEG103) destination vector, which contained the pro35S promoter and a C-terminal GFP tag, to produce a vector containing pro35S::PLS:GFP DNA. The ETR1 cDNA was inserted into the pEarlyGate301 (pEG301) vector to create a pro35S::ETR1:HA construct to express an ETR1 protein with a C-terminal HA tag. pro35S::GFP was used as a control. The primers used to clone ETR1 and PLS are found in supplemental Table 9.
Constructs were transiently expressed in N. benthamiana (tobacco) leaves as described previously ([Voinnet et al., 2003]). Experiments were replicated up to five times. Competent Agrobacterium tumefaciens GV3101 cells were transformed with the desired plasmid containing the gene of interest and injected with a syringe. The plants were approximately 7–10 weeks old; the chosen leaves were healthy and 3–6 cm in length, and 3 to 4 leaves were infiltrated with each construct. […]
SDS–PAGE was used to separate protein fragments. The complexed proteins from the pulldown assay were analyzed on 10%–12% acrylamide gels. […] The horseradish peroxidase conjugated to the secondary antibody was detected using X-ray film. […]

In the case of “PLS(FL): full-length 36-amino-acid PLS peptide from Arabidopsis (MKPRLCFNFRRRSISPCYISISYLLVAKLFKLFKIH)”, the solubility [1] is reported as “problems with PLS solubility” and the “reduction in PLS:GFP binding to ETR1:HA” value (ETR1:HA) is reported as roughly 80%.
